The test system of series [1] is Saccharomyces cerevisiae. The series can be described thus: protein stability index of tFT-peptide fusion (C-terminal peptide) (PSI (0-1 scale)); higher = more stable (slower turnover). The conditions noted are these: genetic background: wild type; temperature: 30 C.
Series [2] deals with Saccharomyces cerevisiae. The description is as above. The method, then:
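MPS profiling in S. cerevisiae of the tFT-X12 degron library: putative degron peptides plus stable controls, 12 aa, fused to the C-terminus of a sfGFP-mCherry timer. Cells are FACS-sorted into 8 mCherry/sfGFP bins and deep-sequenced. PSI runs from 0 (unstable) to 1 (stable). Backgrounds are wild type, das1Δ and doa10Δ at 30 °C, and wild type, das1Δ, cdc34-1 and cdc53-1 at 37 °C; 2-3 technical replicates each.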

± gives the standard deviation of the averaged measurements.
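Also: PSI is a weighted mean of sequencing reads over stability bins, variants kept only with over 10 reads, mCherry proximal and sfGFP distal, peptide attached via GGGS linker.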

Consider WGYGRGRVWEIS, for which the protein stability index in the series on Saccharomyces cerevisiae [1] is 0.6137 ± 0.0011. For the sequence WHLQYTLIPYEA, in the series on Saccharomyces cerevisiae [1], the protein stability index turned out to be 0.635 ± 0.054.

WIGRSVGVELCR showed a protein stability index in the series on Saccharomyces cerevisiae [1] of 0.807 ± 0.13. The same measure, in the same setting: the same measure for WIKKGKNRLRKT: 0.586 ± 0.05; for WISAPTDRNITN: 0.713 ± 0.0095. Still for that read-out and setting: then WISLRRIKSNRE, with 0.802 ± 0.014; and WKYRGVGGVGMG, with 0.745 ± 0.097; and WLFVGGWGVFGG, with 0.674 ± 0.068. Take WLVRNVVGGGVC: the protein stability index in the series with Saccharomyces cerevisiae [1] amounted to 0.722 ± 0.061. Still for that read-out and setting: then WLYGEFGALVVD, with 0.685 ± 0.033; and WNWSIITTENKP, with 0.7 ± 0.064. Still for that read-out and setting: the same measure for WPGICVWAGSPG: 0.717 ± 0.06; for WPVRNRIQPPPR: 0.705 ± 0.051. On the same count and under the same terms, the same measure for WQGSASCSVVLV: 0.55 ± 0.043. On to WQIDVWDSNCVM, for which, in the series with Saccharomyces cerevisiae [1], the protein stability index amounted to 0.692 ± 0.027. Regarding WQWDMESKRKKE, the protein stability index in the series with Saccharomyces cerevisiae [1] is 0.7056 ± 0.0026. The same measure, in the same setting: then WRFTSCCPDPAT, with 0.772 ± 0.076; and WRLDDPTLISNI, with 0.693 ± 0.032.

WRMGCSVRGVVG yielded a protein stability index in the series on Saccharomyces cerevisiae [1] of 0.693 ± 0.055. In the series with Saccharomyces cerevisiae [1], WRPVSVVSPLSD showed a protein stability index of 0.677 ± 0.081. Still for that read-out and setting: then WRSSSFFPAAVG, with 0.6715 ± 0.0042; and WRVDKREPPGRL, with 0.707 ± 0.034; and WSGDLRNIEFAR, with 0.816 ± 0.1. Same read-out and setting: then WSGQWCRGRAGG, with 0.706 ± 0.018; and WSGWGYGISALL, with 0.681 ± 0.047. Still for that read-out and setting: the same measure for WSIEESLGIWLR: 0.538 ± 0.021; for WSLPILPPPSPD: 0.663 ± 0.032.

Turning to WSQDRLFLGFGC, the protein stability index in the series with Saccharomyces cerevisiae [1] was 0.875 ± 0.038. Still for that read-out and setting: then WSRLAGMGRGGA, with 0.764 ± 0.013. In the series on Saccharomyces cerevisiae [1], WSRSGGGEKYGV had a protein stability index of 0.69 ± 0.0094. Still for that read-out and setting: the same measure for WSSGLHHLPPSP: 0.706 ± 0.091; for WSSPCTGGVGKC: 0.63 ± 0.0068.

WSSSPAFKPSRR gave a protein stability index in the series on Saccharomyces cerevisiae [1] of 0.655 ± 0.098. Same read-out and setting: then WSVVRVGGCGAR, with 0.699 ± 0.024; and WSWGGLHRELAA, with 0.744 ± 0.0099. On the same count and under the same terms, then WSWRGMVELVEE, with 0.642 ± 0.069; and WTPGTPVFSKGI, with 0.714 ± 0.035. On to WVFYAVRWRTWN, for which the protein stability index in the series with Saccharomyces cerevisiae [2] (genetic background: cdc34-1, temperature: 37 C) is 0.254 ± 0.015; in the series with Saccharomyces cerevisiae [2] (genetic background: cdc53-1, temperature: 37 C) it was 0.44 ± 0.0092; with Saccharomyces cerevisiae [2] (genetic background: das1 deletion, temperature: 30 C), 0.311 ± 0.037; in the series with Saccharomyces cerevisiae [2] (genetic background: das1 deletion, temperature: 37 C), 0.54 ± 0.017; in the series with Saccharomyces cerevisiae [2] (genetic background: doa10 deletion, temperature: 30 C) it was 0.0632 ± 0.0063; with Saccharomyces cerevisiae [2] (genetic background: wild type, temperature: 30 C) it was 0.066 ± 0.018. The protein stability index in the series with Saccharomyces cerevisiae [2] (genetic background: wild type, temperature: 37 C) is 0.061 ± 0.0063.

For the sequence WVGGGLVVFGWK, the protein stability index in the series on Saccharomyces cerevisiae [1] was determined as 0.6944 ± 0.0025. On the same count and under the same terms, then WVGGVVMVPVLL, with 0.542 ± 0.0094.

For WVGLGRVWVKLG, the protein stability index in the series on Saccharomyces cerevisiae [1] worked out at 0.697 ± 0.044.

Sequence WVLGGVAPPAVL returned a protein stability index with Saccharomyces cerevisiae [1] of 0.694 ± 0.048. Same read-out and setting: the same measure for WVLPFLGAWLEL: 0.606 ± 0.063; for WVPCGYIERAPL: 0.582 ± 0.05; for WVSAMGIPRVVG: 0.574 ± 0.05. Sequence WVSGLVSIGACL registered a protein stability index in the series with Saccharomyces cerevisiae [1] of 0.683 ± 0.0076. The same measure, in the same setting: the same measure for WVTCALVVQSRF: 0.693 ± 0.0073; for WVVLGGRSGCGA: 0.667 ± 0.053. On the same count and under the same terms, the same measure for WWEGSFRVGAVR: 0.638 ± 0.008; for WWGCRSVGVGLG: 0.675 ± 0.025; for WWGWGGVACLLL: 0.693 ± 0.059. As for WWVGVVGCGSGA, the protein stability index with Saccharomyces cerevisiae [1] stood at 0.676 ± 0.11. Sequence WYRIPGASHGPP gave a protein stability index with Saccharomyces cerevisiae [1] of 0.662 ± 0.034. Sequence YADTCEGDNLTS displayed a protein stability index with Saccharomyces cerevisiae [1] of 0.661 ± 0.03. The same measure, in the same setting: the same measure for YAKKIDTIIILT: 0.54 ± 0.009. The same measure, in the same setting: then YANFFVVGELGP, with 0.687 ± 0.02; and YAYLGSNLKQTA, with 0.703 ± 0.03; and YCHVPVVGSWIP, with 0.735 ± 0.067. Still for that read-out and setting: the same measure for YCLERVPAEYDG: 0.67 ± 0.019. As for YCVMEVAGLEWE, the protein stability index with Saccharomyces cerevisiae [1] was 0.69 ± 0.038. The same measure, in the same setting: then YDFHWAYFHSLY, with 0.7113 ± 0.0035; and YFCGARSVGPGD, with 0.717 ± 0.035; and YFVAVLGRCIRG, with 0.6519 ± 0.0011. Same read-out and setting: the same measure for YGAGLSHLFRIS: 0.636 ± 0.041. The same measure, in the same setting: the same measure for YGGGVWRGVALG: 0.6914 ± 0.0052; for YGLVSFVCFNGG: 0.679 ± 0.042.

For the sequence YGTGNGRRTYFD, the protein stability index in the series with Saccharomyces cerevisiae [1] was 0.735 ± 0.04.

Take YGVLEYLRDLVF: the protein stability index with Saccharomyces cerevisiae [1] amounted to 0.689 ± 0.016. Consider YIGSVCLCVSPV, for which the protein stability index in the series on Saccharomyces cerevisiae [1] amounted to 0.5999 ± 0.0038. On the same count and under the same terms, the same measure for YIHQRKGRKPNE: 0.622 ± 0.057; for YINTKKKKINKT: 0.655 ± 0.014. On the same count and under the same terms, then YIQGAPGGLGYP, with 0.713 ± 0.0077; and YKGQVKKNNPQC, with 0.726 ± 0.033. Same read-out and setting: the same measure for YKGRYDCRVGGR: 0.682 ± 0.0096; for YKKVKADKKKRM: 0.687 ± 0.017.

In the series with Saccharomyces cerevisiae [1], YLCVLASLSSTF showed a protein stability index of 0.591 ± 0.022.

As to YLFVRTGYRCKW, in the series on Saccharomyces cerevisiae [1], the protein stability index came out at 0.681 ± 0.033. On to YLGFRADVVFGK, for which, in the series on Saccharomyces cerevisiae [1], the protein stability index came out at 0.712 ± 0.063. Still for that read-out and setting: the same measure for YLGFRVACPMLA: 0.501 ± 0.036; for YLGWLYQKCGTV: 0.639 ± 0.056; for YLKVNDELERRR: 0.695 ± 0.05. In turn, YLRACDPPAVHR returned a protein stability index with Saccharomyces cerevisiae [1] of 0.67 ± 0.024. Same read-out and setting: the same measure for YLRGRCSSLSLR: 0.698 ± 0.036; for YLSPPLLPSFPL: 0.728 ± 0.021; for YLSVLQLRCFPA: 0.659 ± 0.019. The same measure, in the same setting: then YLTNIHQRVLLP, with 0.659 ± 0.031; and YLVKSCCNKDNV, with 0.659 ± 0.029; and YLVPPLQPHSPA, with 0.7305 ± 0.0056. Same read-out and setting: then YLVRENLFSRLV, with 0.466 ± 0.07. In the case of YMAGPAQGRDGS, the protein stability index with Saccharomyces cerevisiae [1] turned out to be 0.668 ± 0.013. The same measure, in the same setting: the same measure for YNANEKTINKDK: 0.693 ± 0.063. In the series with Saccharomyces cerevisiae [1], YNYADVCTNESP yielded a protein stability index of 0.7 ± 0.022.

With YPCPPLLISSPP, the protein stability index in the series with Saccharomyces cerevisiae [1] amounted to 0.709 ± 0.051. In the series on Saccharomyces cerevisiae [1], YPPLSYSFCHRP gave a protein stability index of 0.637 ± 0.072.

On to YPSQLGPSVPLS, for which the protein stability index with Saccharomyces cerevisiae [1] is 0.703 ± 0.039. With YPTCPPPSARRV, the protein stability index with Saccharomyces cerevisiae [1] was determined as 0.58 ± 0.025. The sequence YQGERGAIGVIF displayed a protein stability index in the series on Saccharomyces cerevisiae [1] of 0.605 ± 0.013. Same read-out and setting: the same measure for YRAHAYPYVPRS: 0.682 ± 0.027; for YRALRRAFENKI: 0.633 ± 0.028. The same measure, in the same setting: then YRCVQKEIVQRY, with 0.693 ± 0.056. Still for that read-out and setting: the same measure for YRDSLLATNFFS: 0.694 ± 0.056; for YREIVKQTENKR: 0.673 ± 0.0083.

YRPLEQLLSLSH showed a protein stability index in the series with Saccharomyces cerevisiae [1] of 0.651 ± 0.08. In the series on Saccharomyces cerevisiae [1], YSFFTLCLSLPA returned a protein stability index of 0.557 ± 0.025. With YSHPCLSCREAH, the protein stability index with Saccharomyces cerevisiae [1] came to 0.749 ± 0.057. On the same count and under the same terms, the same measure for YSIKSTVTYSVH: 0.574 ± 0.066; for YSLASRVVNFCA: 0.497 ± 0.012.

In the case of YSLLSAHLVPIA, in the series on Saccharomyces cerevisiae [1], the protein stability index is 0.614 ± 0.027.

YSLVKITHGRKK: the protein stability index with Saccharomyces cerevisiae [1] is 0.684 ± 0.015. Same read-out and setting: then YSSFRSVNWVFP, with 0.6838 ± 0.0033. On the same count and under the same terms, then YSSLLLPPLLLF, with 0.621 ± 0.025; and YSTYGGGYFMAF, with 0.668 ± 0.031.

Consider YTLMEERTKKDN, for which the protein stability index in the series with Saccharomyces cerevisiae [1] came to 0.742 ± 0.068.

YTMGGSLSVSLD: the protein stability index in the series with Saccharomyces cerevisiae [1] is 0.817 ± 0.16.

YTPLLAHRGCCC returned a protein stability index in the series on Saccharomyces cerevisiae [1] of 0.695 ± 0.029. Same read-out and setting: the same measure for YVPTPSRPRRNR: 0.718 ± 0.066; for YYPLLLASQLPI: 0.735 ± 0.0041. The same measure, in the same setting: then YYRLLACQRPSR, with 0.679 ± 0.027.

The values above are taken from the supplement of paper PMC10724198.
